The text below walks through data of patent US20240002497A1 (Merck Sharp & Dohme, published 2024).

Test [1] addresses T1, huNav1.7α + β1-β2-β3 (human, UniProt Q15858 1-1988; A5A6L6 19-218; O60939 30-215; Q2KI11 23-215).
T1 construct: Cell line (CHO FlpIn, HEK FlpIn, transient HEK293T) is named under assay; also called huNav1.7-beta1-beta2-beta3; human Nav1.7α with Navβ1, Navβ2 and Navβ3
Put plainly: binding FACS, CHO FlpIn cells. The method in brief: (§1)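 Flow cytometry binding assay on stable CHO FlpIn cell lines expressing Nav1.7α (human wild type, single DI S5-S6 point variants, or rhesus) with β1-β2-β3. Cells in FACS buffer (PBS, 10% FBS, NaN₃) were plated at 1×10^5 cells/well in 96-well V-bottom plates. FLAG3-tagged ISVDs were added for 30 minutes at 4° C and detected with murine anti-Flag. Dead cells were excluded using 1 μg/mL propidium iodide, and EC50 was determined.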

Test [2] deals with T2, huNav1.7α(F276V) + β1-β2-β3 (human, UniProt Q15858 1-1988; A5A6L6 19-218; O60939 30-215; Q2KI11 23-215).
T2 construct: polyprotein as encoded, P2A sites liberate the subunits; the entry already carries F276V; also called huNav1.7(F276V)-beta1-beta2-beta3
Nature of the test: binding FACS, CHO FlpIn cells. Summed up: as §1

In test [3] the target is T3, huNav1.7α(R277Q) + β1-β2-β3 (human).
T3 construct: polyprotein as encoded; the entry already carries R277Q; also called huNav1.7(R277Q)-beta1-beta2-beta3
Nature of the test: binding FACS, CHO FlpIn cells. Summed up: as §1

For test [4], the target named is T4, huNav1.7α(E281V) + β1-β2-β3 (human).
T4 construct: polyprotein as encoded; the entry already carries E281V; also called huNav1.7(E281V)-beta1-beta2-beta3
Nature of the test: binding FACS, CHO FlpIn cells. Summed up: as §1

Test [5] deals with T5, huNav1.7α(V331M) + β1-β2-β3 (human).
T5 construct: polyprotein as encoded; the entry already carries V331M; also called huNav1.7(V331M)-beta1-beta2-beta3
Nature of the test: binding FACS, CHO FlpIn cells. The method in brief: as §1

The next test has as its target T6, huNav157chim4 + β1-β2-β3 (human, UniProt Q15858 44-1988; A5A6L6 19-218; O60939 30-215; Q2KI11 23-215).
T6 construct: DII, DIII, DIV from Nav1.7α, DI from Nav1.5α; also called huNav157 chimera 4
Nature of the test: FACS, transiently transfected HEK293T cells. As to the method: (§2) Binding of the ISVDs to cell-expressed Nav1.7α was detected via murine anti-Flag (Sigma, catalog #F1804). Briefly, cells were resuspended in FACS buffer (PBS, 10% FBS, NaN₃) and transferred to a 96-well V-bottom plate at 1×10^5 cells/well. Purified FLAG3-tagged ISVD was diluted in FACS buffer and added to the cells for 30 minutes at 4° C. […] Prior to the read-out, the samples were resuspended in 1 μg/mL propidium iodide (Sigma, catalog #P4170) to exclude dead cells. Between each step, the cells were centrifuged for 5 minutes at 200 grams and washed with 100 μL/well FACS buffer.
(§3) FACS binding studies (as described above) were performed on HEK293T cells transiently transfected with expression vectors encoding a huNav1.7α or rhNav1.7α fused at the C-terminus via a P2A viral peptide linker to a single polypeptide encoding sodium channel beta subunits Navβ1, Navβ2, and Navβ3 in tandem (β1-β2-β3; SEQ ID NO:21). Similarly, HEK293T cells transiently transfected with expression vectors encoding chimeric variants of huNav1.7α in which individual domains are replaced by their huNav1.5α counterparts (chimeras 1 to 4 in FIG. 16) or with chimeric variants of huNav1.5 in which individual domains are replaced by their huNav1.7α counterparts (chimeras 5 to 8 in FIG. 16) fused at the C-terminus via a P2A viral peptide linker to β1-β2-β3 as above. See Table 7 for description of the expression vectors encoding the chimeras, Table 21 and FIG. 16).
For orientation: A flow cytometer gives signals particle by particle.

The next test has as its target T7, huNav157chim5 + β1-β2-β3 (human).
T7 construct: DI, DII, DIII from Nav1.5α, DIV from Nav1.7α; also called huNav157 chimera 5
Nature of the test: FACS, transiently transfected HEK293T cells. Here is the method: as §2, §3

The target of a further test is T8, huNav157chim6 + β1-β2-β3 (human).
T8 construct: DI, DII, DIV from Nav1.5α, DIII from Nav1.7α; also called huNav157 chimera 6
Nature of the test: FACS, transiently transfected HEK293T cells. As to the method: as §2, §3

The target of the next test is T9, huNav157chim7 + β1-β2-β3 (human).
T9 construct: DI, DIII, DIV from Nav1.5α, DII from Nav1.7α; also called huNav157 chimera 7
Nature of the test: FACS, transiently transfected HEK293T cells. As to the method:
as §2, §3

The target of test [6] is T10, huNav157chim12 + β1-β2-β3 (human, UniProt Q15858 1-1988; A5A6L6 19-218; O60939 30-215; Q2KI11 23-215).
T10 construct: DI S5-S6 from Nav1.5α, rest Nav1.7α; also called huNav157 chimera 12
Nature of the test: FACS, transiently transfected HEK293T cells. As to the method: as §2, §3

Another test concerns the target T11, huNav157chim1 + β1-β2-β3 (human, UniProt Q15858 1-1962; A5A6L6 19-218; O60939 30-215; Q2KI11 23-215).
T11 construct: DI, DII, DIII from Nav1.7α, DIV from Nav1.5α; fused by P2A to β1-β2-β3; also called huNav157 chimera 1
Nature of the test: FACS, transiently transfected HEK293T cells. Here is the method:
as §2, §3

In test [7] the target is T1, huNav1.7α + β1-β2-β3. Put plainly: competition FACS, HEK FlpIn cells, vs EC30 of CMYC3-F0103265B04. The method in brief:
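HEK FlpIn cells expressing huNav1.7α+β1-β2-β3 (1×10⁵/well) were incubated 1.5 h at 4 °C with a dilution series of purified ISVD plus CMYC3-tagged F0103265B04 at EC30-equivalent concentration in PBS, 2% FBS, 0.05% NaN₃. Flow cytometry read-out with 5 nM TOPRO3 to exclude dead cells.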

B1: F0103275B05 (VHH)
VHH: EVQLVESGGGLVQPGGSLRLSCAASGSIFNINSMAWYRRAPGKQRELVASSTNGGSTNYADSVKGRFTISRDNAKRVYLQMNSLTPEDTAVYYCNALLQPSIYDISRTYWGQGTLVTVSS
notes: entry includes the FLAG-HIS6 tag; also called F0103275B05 (parental)-FLAG-HIS6
On to B1, for which the EC50 in the test with huNav1.7α + β1-β2-β3 [1] was 30 nM; in test [2], 26 nM; in test [3], 25 nM; in test [4] it was 24 nM; in test [5], 21 nM. For the same molecule, the binding result (in the test with huNav157chim4 + β1-β2-β3; in the test with huNav157chim5 + β1-β2-β3; in the test with huNav157chim6 + β1-β2-β3; with huNav157chim7 + β1-β2-β3; in [6]; with huNav157chim1 + β1-β2-β3) was “no binding (tested: 1 µM)” in each case. Further, the IC50 with huNav1.7α + β1-β2-β3 [7] stood at 98 nM.

Usually EC50 stands for the concentration giving half of the maximal effect. Usually IC50 stands for the point on the concentration scale where inhibition reaches its midpoint.
